Measured values: patent publication US20230068783A1 (TAVOTEK BIOTHERAPEUTICS HONG KONG, published 2023)
Positions count from the first letter of the chain named.

T1: IL-1β receptor IL-1R on the surface of HEK-Blue IL-1β cells (UniProt P14778 18-569, limits assumed)
T1 sequence (looked up): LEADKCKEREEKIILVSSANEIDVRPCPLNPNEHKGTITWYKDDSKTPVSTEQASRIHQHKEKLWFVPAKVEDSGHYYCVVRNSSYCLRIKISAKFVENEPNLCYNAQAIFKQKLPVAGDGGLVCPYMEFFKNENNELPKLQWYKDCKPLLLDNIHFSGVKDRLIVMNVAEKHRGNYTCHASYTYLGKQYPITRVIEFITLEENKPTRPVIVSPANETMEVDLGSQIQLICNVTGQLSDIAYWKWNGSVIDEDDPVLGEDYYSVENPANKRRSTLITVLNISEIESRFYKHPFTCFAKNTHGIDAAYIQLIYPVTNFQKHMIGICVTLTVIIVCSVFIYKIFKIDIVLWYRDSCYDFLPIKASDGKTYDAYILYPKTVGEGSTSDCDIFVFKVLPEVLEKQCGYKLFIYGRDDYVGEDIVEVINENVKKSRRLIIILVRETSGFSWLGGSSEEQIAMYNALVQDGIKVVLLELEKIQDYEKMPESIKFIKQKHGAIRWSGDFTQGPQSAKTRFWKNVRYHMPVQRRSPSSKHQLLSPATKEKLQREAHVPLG

T2: mouse IL-1β (mouse, UniProt P10749 118-269)
T2 sequence (looked up): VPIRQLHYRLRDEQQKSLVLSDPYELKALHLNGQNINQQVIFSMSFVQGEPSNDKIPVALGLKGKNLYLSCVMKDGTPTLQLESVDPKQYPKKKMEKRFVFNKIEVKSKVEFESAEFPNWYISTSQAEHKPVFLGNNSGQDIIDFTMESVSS

T3: human IL-1α (human, UniProt P01583 113-271)
T3 construct: Purified recombinant protein
T3 sequence (looked up): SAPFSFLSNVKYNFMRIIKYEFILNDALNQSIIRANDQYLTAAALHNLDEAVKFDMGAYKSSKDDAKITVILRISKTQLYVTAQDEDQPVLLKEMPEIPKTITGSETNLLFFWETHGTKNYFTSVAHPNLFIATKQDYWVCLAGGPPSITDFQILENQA

B1: Rhesus monkey IL-1β (ligand, UniProt P48090 117-269, looked up)
chain: APVRSLHCTLRDAQLKSLVMSGPYELKALHLQGQDLEQQVVFSMSFVQGEESNDKIPVALGLKAKNLYLSCVLKDDKPTLQLESVDPKNYPKKKMEKRFVFNKIEINNKLEFESAQFPNWYISTSQAENMPVFLGGTRGGQDITDFTMQFVSS
B2: mouse monoclonal anti-human IL-1β antibody TAVO304 (antibody, V domains shown)
VH: DVQLVESGGGLVQPGGSRKLSCAASGFTFSSFGMHWVRQAPEKGLEWVAYISIGSYTVHYADTVKGRFTISRDNPKNTLFLQMTSLRSEDTAMYYCVRDDYDVTDYTMDYWGQGTSVTVSS
VL: DIVMSQSPSSLAVSTGEKVTMSCKSSQSLLNSRTRKNYLAWYQQKPGQSPKLLIYWASTRESGVPDRFTGSGSGTDFTLTIGSVQAEDLAVYYCKQTYNFPTFGGGTKLEIK
notes: Mouse monoclonal antibody from hybridoma screening
B3: TAVO7376 (humanized IgG1 antibody, 304VH1 with 304VL1) (antibody, V domains shown)
VH: EVQLVESGGGLVQPGGSLRLSCAASGFTFSSFGMHWVRQAPGKGLEWVAYISIGSYTVHYADSVKGRFTISRDNAKNSLYLQMNSLRDEDTAVYYCVRDDYDVTDYTMDYWGQGTTVTVSS
VL: DIQMTQSPSSLSASVGDRVTITCKSSQSLLNSRTRKNYLAWYQQKPGKAPKLLIYWASTRESGVPSRFSGSGSGTDFTLTISSLQPEDFATYYCKQTYNFPTFGQGTKLEIKR
notes: Humanized IgG1
B4: TAVO7377 (humanized IgG1 antibody, 304VH1 with 304VL2) (antibody, V domains shown)
VH: B3 VH
VL: B3 VL with I21M, L84V, F89L
notes: Humanized IgG1

Columns and labels:
[1] = target: T1, IL-1β receptor IL-1R on the surface of …; experiment: cell-based or functional assay
mouse IL-1β = target: T2, mouse IL-1β; experiment: ELISA, plate coated with mouse IL-1β
Protocol: (§1) By hybridoma screening, TAVO304 was identified as a mouse anti-human IL-1β antibody. ELISA-based binding assay was employed to evaluate TAVO304 binding to recombinant human IL-1β. In this assay, 1 μg/ml recombinant human IL-1β (R&D systems) were coated on ELISA plate. Increasing concentrations of TAVO304 antibodies were applied on the plate and their binding to the recombinant human IL-1P were detected by HRP-conjugated anti-mouse secondary antibody.
(§2) The binding of TAVO304 to mouse and Rhesus monkey IL-1β were also evaluated in similar ELISA assay by coating the plate with mouse and Rhesus monkey IL-1β respectively.

[2] = target: T4, recombinant human IL-1β (R&D systems) (human, UniProt P01584 117-269); experiment: cell-based or functional assay
Rhesus monkey IL-1β [3] = target: B1; experiment: cell-based or functional assay
[4] = target: T4, recombinant human IL-1β (R&D systems); experiment: ELISA, 1 µg/ml recombinant human IL-1β coated, HRP anti-mouse secondary antibody
Protocol: as §1

Rhesus monkey IL-1β [5] = target: B1; experiment: ELISA, plate coated with Rhesus monkey IL-1β
Protocol: as §1, §2

human IL-1α = target: T3, human IL-1α; experiment: ELISA with purified recombinant protein
Protocol: To evaluate the binding specificity, cytokines homologous to IL-1β such as IL-1α were evaluated for binding to humanized antibodies in ELISA-based binding assay with purified recombinant protein.

Binder | EC50 of reporter gene (SEAP) expression in HEK-Blue IL-1β reporter assay [1] [µg/mL] | binding result (mouse IL-1β) | IC50 of neutralizing human IL-1β driven reporter gene expression, HEK-Blue IL-1β reporter assay [2] [µg/mL] | fold potency against reference antibody refAb-1 in IL-1β inhibition, HEK-Blue IL-1β reporter assay [2] [fold] | IC50 of neutralizing rhesus monkey IL-1β driven reporter gene expression, HEK-Blue IL-1β reporter assay (Rhesus monkey IL-1β [3]) [µg/mL] | EC50 [4] [µg/mL] | EC50 (Rhesus monkey IL-1β [5]) [µg/mL] | IC50 of blocking human IL-1β-mediated IL-6 release from MRC-5 cells [2] [µg/mL] | binding result (human IL-1α)
B1 | 0.00016 | – | – | – | – | – | – | – | –
B2 | – | no binding | 0.12 | > 6 | 0.0036 | 0.0036 | 0.0122 | – | –
B3 | – | – | ~0.09 | – | ~0.018 | – | – | ~0.05 | no binding (tested: 1 ug/mL)
B4 | – | – | ~0.09 | – | ~0.018 | – | – | ~0.05 | no binding (tested: 1 ug/mL)
